How the values were obtained:
[1] = target: T1, human lens ALDH1A1 (Homo sapiens, UniProt P00352); type: biochemical
T1 sequence (P00352 1-501): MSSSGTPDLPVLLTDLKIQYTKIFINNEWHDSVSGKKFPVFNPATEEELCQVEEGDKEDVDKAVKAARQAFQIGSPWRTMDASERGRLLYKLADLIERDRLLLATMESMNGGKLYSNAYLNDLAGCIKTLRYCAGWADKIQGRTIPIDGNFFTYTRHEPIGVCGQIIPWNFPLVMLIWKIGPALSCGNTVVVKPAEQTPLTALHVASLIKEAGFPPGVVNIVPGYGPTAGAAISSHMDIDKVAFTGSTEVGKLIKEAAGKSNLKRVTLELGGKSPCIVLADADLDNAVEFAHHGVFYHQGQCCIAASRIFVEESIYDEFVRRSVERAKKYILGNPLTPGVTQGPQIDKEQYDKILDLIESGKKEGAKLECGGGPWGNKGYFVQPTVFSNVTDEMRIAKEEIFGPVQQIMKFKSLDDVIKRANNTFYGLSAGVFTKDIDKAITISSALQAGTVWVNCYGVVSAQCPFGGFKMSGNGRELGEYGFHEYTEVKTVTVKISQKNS

[2] = target: T1, human lens ALDH1A1; type: biochemical; remark: listed apart in the source
[3] = substrate: CCCCCC(O)C=CC=O; test: purified protein; details: NAD+ probably both the substrates fit the active site well
[4] = substrate: CCC=O; test: purified protein; type: biochemical, Homo sapiens; details: NAD+
[5] = substrate: NC(=O)c1ccc[n+]([C@@H]2O[C@H](COP(=O)([O-])OP(=O)(O)OC[C@H]3O[C@@H](n4cnc5c(N)ncnc54)[C@H](O)[C@@H]3O)[C@@H](O)[C@H]2O)c1; test: purified protein; type: biochemical, Homo sapiens; details: may interfere with NO binding to catalytic site; varied: cofactor
[6] = substrate: O=CCC=O; test: purified protein; type: biochemical, Homo sapiens; details: NAD+ probably both the substrates fit the active site well
[7] = substrate: O=Cc1ccccc1; test: purified protein; type: biochemical, Homo sapiens; details: NAD+

Molecule: CC/C(=C(/CC)c1ccc(O)cc1)c1ccc(O)cc1 [diethylstilbestrol]
- EC50 [1]: 11.3 µM

Molecule: CC(C)=CCCC(C)=CC=O [citral, 3,7-dimethyl-2,6-octadienal]
- IC50 [2]: 55 µM

B1: human lens ALDH1A1 (Homo sapiens) (protein)
chain: MSSSGTPDLPVLLTDLKIQYTKIFINNEWHDSVSGKKFPVFNPATEEELCQVEEGDKEDVDKAVKAARQAFQIGSPWRTMDASERGRLLYKLADLIERDRLLLATMESMNGGKLYSNAYLNDLAGCIKTLRYCAGWADKIQGRTIPIDGNFFTYTRHEPIGVCGQIIPWNFPLVMLIWKIGPALSCGNTVVVKPAEQTPLTALHVASLIKEAGFPPGVVNIVPGYGPTAGAAISSHMDIDKVAFTGSTEVGKLIKEAAGKSNLKRVTLELGGKSPCIVLADADLDNAVEFAHHGVFYHQGQCCIAASRIFVEESIYDEFVRRSVERAKKYILGNPLTPGVTQGPQIDKEQYDKILDLIESGKKEGAKLECGGGPWGNKGYFVQPTVFSNVTDEMRIAKEEIFGPVQQIMKFKSLDDVIKRANNTFYGLSAGVFTKDIDKAITISSALQAGTVWVNCYGVVSAQCPFGGFKMSGNGRELGEYGFHEYTEVKTVTVKISQKNS
- Km [3]: 4.8 ± 0.12 µM
- Vmax [3]: 0.135 ± 0.0152 µmol/min/mg
- Km [4]: 121.4 ± 6.7 µM
- Vmax [4]: 0.445 µmol/min/mg
- Km [5]: 59.4 ± 2.4 µM
- Vmax [5]: 0.15 µmol/min/mg
- Km [6]: 3.5 ± 0.6 µM
- Vmax [6]: 0.382 µmol/min/mg
- Km [7]: 143.2 ± 6.4 µM
- Vmax [7]: 0.75 µmol/min/mg

Reference: article PMC5645793 (Journal of toxicology and environmental health. Part A, 2009)
